Experimental findings from patent US20140322825A1 (UNIVERSITY OF MARYLAND BALTIMORE, published 2014) are described below.

Usually Kd stands for a measure of binding affinity in units of concentration. Higher therefore signals lower affinity. As a reminder, the koff is the rate constant with which the complex falls apart. Usually kon stands for the rate constant with which the complex forms. High values mean fast association, low ones slow association.

Test [1] deals with T1, asialo-glycophorin A (aGPA) (human, UniProt P02724 20-150, desialylated by mild acid treatment; carries O-linked TFα (Galβ1-3GalNAcα) structures; biotinylated in the flow cytometry assays).
T1 construct: The lambody recognises the glycans on this glycoprotein; also called asialo-GPA
T1 sequence (looked up): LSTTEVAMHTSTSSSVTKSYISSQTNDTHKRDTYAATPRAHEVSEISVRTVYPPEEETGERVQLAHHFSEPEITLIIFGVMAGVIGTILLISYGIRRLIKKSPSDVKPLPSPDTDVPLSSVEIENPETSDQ
As to the kind of experiment: SPR (Biacore T200), lambody captured by anti-His mAb, aGPA as analyte at 312 pM to 20 nM, 1:1 Langmuir fit. (SPR reads the build-up and loss of mass on a sensor chip optically.)
Experimental: Reference subtracted and blank subtracted binding data were fitted with a 1:1 Langmuir binding model to determine the association and dissociation constants. The equilibrium dissociation constants were calculated from these values.
(§1) All SPR binding experiments were performed using Biacore T200 (GE Healthcare). The running and sample buffer was HBS-EP+ (10 mM HEPES, pH 7.4, 150 mM NaCl, 3 mM EDTA, 0.05% Polysorbate 20). All measurements were performed at 25° C. Anti-His antibody (His capture kit, GE Healthcare) was immobilized by amine coupling to Sensor Chip CM5. VLRB.aGPA.23 and Mut.10 were diluted to 10 μg/mL and injected in each cycle at 10 μL/min for 30 seconds, to capture approximately 300 RU. […] Regeneration of the anti-His surface was accomplished using a 60 second injection of 10 mM glycine-HCl pH 1.5. The reference subtracted SPR binding curves were blank subtracted, and curve fitting was performed with a 1:1 model to obtain kinetic parameters using the Biacore T200 Evaluation software.

Test [2] concerns the target T1, asialo-glycophorin A (aGPA). The experiment in a line: SPR (Biacore T200), lambody captured via anti-His mAb, aGPA as analyte, 1:1 Langmuir fit.
Experimental: All SPR binding experiments were performed using Biacore T200 (GE Healthcare). The running and sample buffer was HBS-EP+ (10 mM HEPES, pH 7.4, 150 mM NaCl, 3 mM EDTA, 0.05% Polysorbate 20). All measurements were performed at 25° C. Anti-His antibody (His capture kit, GE Healthcare) was immobilized by amine coupling to Sensor Chip CM5. […] Regeneration of the anti-His surface was accomplished using a 60 second injection of 10 mM glycine-HCl pH 1.5. The reference subtracted SPR binding curves were blank subtracted, and curve fitting was performed with a 1:1 model to obtain kinetic parameters using the Biacore T200 Evaluation software.
For test [3] the target is unchanged. The experiment in a line: SPR (Biacore T200), lambody captured via anti-His mAb, aGPA as analyte.
Experimental: as §1

B1: lambody VLRB.aGPA.23 (as used in SPR) (other)
chain: ACPSQCSCSGTEVNCAGKSLASVPAGIPTTTRVLYLNSNQITKLEPGVFDRLANLRELHLWGNQLVSLPPGVFDNLANLEKLWLNSNQLTSLPAGLFDRLVNLEHLGLCCMKLTELPSGAFDKLTRLKQLGLDQNQLKSIPDGAFARLPSLTHVWLHTNPWDCQCTDILYLSGWVAQHSSIVGEGWPWRHSPDSAKCSGTNTPVRAVTEASTSPSKCP
notes: Dimeric, yeast-secreted lambody captured on the chip through an anti-His antibody; also called VLRB.GPA.23; not shown: 6-His and FLAG tags plus a dimerization domain
B1: in test [1], the Kd stood at 1.09 nM, the koff is 0.000331 s⁻¹ and the kon was determined as 303000 M⁻¹ s⁻¹. The same molecule yielded a dissociation constant Kd in test [2] of 1.1 nM.

B2: Mut.10 (affinity-improved clone of VLRB.aGPA.23) (other)
chain: ACPSQCSCSGTEVNCAGKNLASVPAGIPTTTRVLYLNSNQITKLEPGVFDRLANLRELHLWGNQLVSLPPGVFDNLANLEKLWLNGNQLTSLPAGLFDRLVNLERLGLCCMMLTELPSGAFDKLTRLKQLGLDQNQLKSIPDGAFARLPSLTHVWLHTNPWDCQCTDILYLSGWVAQHSSIVGEGWPWRHSPDSAKCSGTNTPVRAVSEASTSPSKCP
notes: also called clone Mut.10; not shown: 6-His and FLAG tags plus a dimerization domain
As for B2, in test [1], the Kd was 0.637 nM, the koff is 0.000222 s⁻¹ and the kon was 349000 M⁻¹ s⁻¹. The “fold higher affinity than VLRB.aGPA.23” value in test [3] worked out at 1.7 fold.
